From paper PMC2940758, “The N-Terminal Domain of the Arenavirus L Protein Is an RNA Endonuclease Essential in mRNA Transcription”

Target: T1, NL1 (N-terminal endonuclease domain of L protein) (Lymphocytic choriomeningitis virus …, UniProt P14240 1-196)
T1 sequence: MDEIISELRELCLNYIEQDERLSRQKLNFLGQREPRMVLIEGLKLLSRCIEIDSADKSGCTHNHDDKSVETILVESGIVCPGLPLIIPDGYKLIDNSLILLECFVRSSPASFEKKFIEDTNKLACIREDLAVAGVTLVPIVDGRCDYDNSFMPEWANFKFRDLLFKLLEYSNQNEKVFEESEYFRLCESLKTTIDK
Assay: EMSA
Settings: protein: recombinant; tags: N-terminal His6; label: 5'-32P; unpaired

**Q.** Does AUUUUGUUUUUAAUAUUUC (ssRNA) [19-mer unstructured RNA] bind?
**A.** binds
